PMC3056663, “A Bi-Functional Anti-Thrombosis Protein Containing Both Direct-Acting Fibrin(ogen)olytic and Plasminogen-Activating Activities” (PLoS ONE, 2011)

B1: native eupolytin1 (NE) (Eupolyphaga sinensis) (protein)
chain: RIVGGSDANIEDLPYQLSFEYGGSHMCGASIISENWVVTAAHCVDGVSASSARFRAGSSVRGSGGSLHQATQLIANPQYDYYTIDYDVAVARVATPFSYGSGVQPISLISVEPSAGQTATVSGWGTFFSGGSLPRQLQVVSVPIVSPQQCNNDYASYGGITENMICAAEEQGGKDPCQGDSSGPLTVGGQLAGIVSWGAGCAQRGYPGVYSNVATLRKFITDETGVN
notes: mature protein of 227 residues, 27-residue signal peptide removed (precursor 254); purified natively from mid-gut; 26 kDa on SDS-PAGE
B2: recombinant eupolytin1 (RE) (Eupolyphaga sinensis) (protein)
chain: IVGGSDANIEDLPYQLSFEYGGSHMCGASIISENWVVTAAHCVDGVSASSARFRAGSSVRGSGGSLHQATQLIANPQYDYYTIDYDVAVARVATPFSYGSGVQPISLISVEPSAGQTATVSGWGTFFSGGSLPRQLQVVSVPIVSPQQCNNDYASYGGITENMICAAEEQGGKDPCQGDSSGPLTVGGQLAGIVSWGAGCAQRGYPGVYSNVATLRKFITDETGVN
notes: tag released by enterokinase; primer encodes DDDDK-IVGG at the cleavage site; Mono Q purified

Substrate: N=C(N)NCCC[C@H](NC(=O)c1ccccc1)C(=O)Nc1ccc([N+](=O)[O-])cc1
Experiment: purified protein
Format: biochemical, Eupolyphaga sinensis
Settings: 50 mM Tris-HCl, pH 7.8, 37°C

| Protein | Km | Vmax | kcat/Km |
| --- | --- | --- | --- |
| B1 | 3.24 mM | 63000 µM/min | 1e+07 M⁻¹ s⁻¹ |
| B2 | 3.01 mM | 67200 µM/min | 8e+06 M⁻¹ s⁻¹ |
